In data set [1] the target is T1, OsLHY (Oryza sativa, UniProt A0A0P0XBU0 1-719). Kind of data set: competition.
Data set [2] addresses T2, OsNAC15 (Oryza sativa, UniProt K9LKF1 1-301).
T2 sequence: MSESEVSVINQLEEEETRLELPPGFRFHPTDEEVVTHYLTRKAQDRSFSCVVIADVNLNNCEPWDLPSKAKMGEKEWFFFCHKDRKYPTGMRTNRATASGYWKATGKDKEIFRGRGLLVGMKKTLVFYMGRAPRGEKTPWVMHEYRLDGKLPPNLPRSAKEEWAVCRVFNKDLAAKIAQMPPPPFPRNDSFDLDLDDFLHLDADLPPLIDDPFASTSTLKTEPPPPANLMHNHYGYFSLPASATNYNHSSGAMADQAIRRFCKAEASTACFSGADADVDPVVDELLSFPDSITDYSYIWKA
Kind of data set: EMSA.

For data set [3], the target named is T1, OsLHY. Kind of data set: EMSA. In general terms: Mobility shift assays separate free from complexed probe on a gel.
The target in data set [4] is T1, OsLHY. Kind of data set: competition. This is another data set of the same source.

T1 sequence (A0A0P0XBU0 whole entry): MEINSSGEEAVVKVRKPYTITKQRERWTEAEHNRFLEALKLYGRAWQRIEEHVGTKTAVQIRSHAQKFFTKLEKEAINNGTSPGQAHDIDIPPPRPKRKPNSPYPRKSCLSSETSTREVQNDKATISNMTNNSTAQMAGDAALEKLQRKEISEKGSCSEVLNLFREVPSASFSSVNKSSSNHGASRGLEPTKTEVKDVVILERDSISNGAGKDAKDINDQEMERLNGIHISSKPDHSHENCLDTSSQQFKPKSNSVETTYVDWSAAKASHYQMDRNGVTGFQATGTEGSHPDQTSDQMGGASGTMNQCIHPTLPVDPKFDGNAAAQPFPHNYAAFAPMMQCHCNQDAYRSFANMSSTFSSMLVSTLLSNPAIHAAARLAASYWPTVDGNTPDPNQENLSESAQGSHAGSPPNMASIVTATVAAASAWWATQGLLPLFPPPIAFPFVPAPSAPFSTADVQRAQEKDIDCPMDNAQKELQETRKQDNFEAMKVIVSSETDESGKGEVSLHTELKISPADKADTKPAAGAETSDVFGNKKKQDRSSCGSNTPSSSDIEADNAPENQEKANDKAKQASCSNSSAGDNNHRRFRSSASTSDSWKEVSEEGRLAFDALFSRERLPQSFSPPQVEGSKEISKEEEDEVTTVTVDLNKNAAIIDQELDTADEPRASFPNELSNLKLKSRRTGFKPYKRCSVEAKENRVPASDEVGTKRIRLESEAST

B1: OsLHY Cold probe, 3x AAGATATTT (dsDNA)
DNA 1: AAGATATTTAAGATATTTAAGATATTT
DNA 2: AAATATCTTAAATATCTTAAATATCTT
For the molecule B1, in data set [1], the binding result is recorded as “binds”.

B2: OsNAC15 Bio-probe, 3x AGCAAGA (dsDNA)
DNA 1: AGCAAGAAGCAAGAAGCAAGA
DNA 2: TCTTGCTTCTTGCTTCTTGCT
Regarding B2, the binding result in data set [2] is given as “binds”.

B3: OsLHY Bio-probe, 3x AAGATATTT (dsDNA)
DNA 1: AAGATATTTAAGATATTTAAGATATTT
DNA 2: AAATATCTTAAATATCTTAAATATCTT
In the case of B3, the binding result in data set [3] was “binds”.

B4: OsLHY mCold probe, 3x AAGGCGCCC (dsDNA)
DNA 1: AAGGCGCCCAAGGCGCCCAAGGCGCCC
DNA 2: GGGCGCCTTGGGCGCCTTGGGCGCCTT
B4: in data set [4], the binding result is given as “no binding”.
